Reference: the Human Domainome abundance scans (Beltran et al. 2025)
± gives the uncertainty stated by the source.

B1: Cell division cycle and apoptosis regulator protein 1, residues 625 to 674; numbered along this chain, Q8IX12 (parent)
chain: ISTPTHWSKLDPKTMKVNDLRKELESRALSSKGLKSQLIARLTKQLKVEE

Variants of: B1
Assay: abundance fitness (aPCA) (normalised: wild type 0, dead -1); higher = more abundant; growth selection in yeast, the domain comes from the species named
Conditions: Homo sapiens

| Variant | abundance fitness |
| --- | --- |
| D19Y | -0.023 ± 0.032 |
| S26K | 0.197 ± 0.059 |
| T5N | -0.42 ± 0.061 |
| N18C | 0.051 ± 0.036 |
| P12Y | -0.74 ± 0.068 |
| H6D | 0.009 ± 0.048 |
| A28L | 0.04 ± 0.042 |
| E23N | -0.563 ± 0.16 |
| Q45G | -0.364 ± 0.039 |
| K22E | -0.242 ± 0.059 |
| I39E | -0.102 ± 0.047 |
| V48P | -0.795 ± 0.046 |
| T43R | 0.103 ± 0.03 |
| K9N | -0.136 ± 0.051 |
| V48K | 0.009 ± 0.053 |
| K13P | -0.187 ± 0.047 |
| V17L | 0.026 ± 0.034 |
| M15W | -0.899 ± 0.062 |
| S30H | -0.152 ± 0.064 |
| K47L | -0.151 ± 0.036 |
| E50N | -0.332 ± 0.095 |

| Variant | abundance fitness |
| --- | --- |
| R41N | -0.235 ± 0.045 |
| L29N | -0.552 ± 0.083 |
| A40D | -0.05 ± 0.04 |
| K9V | -0.129 ± 0.031 |
| E49N | -0.909 ± 0.12 |
| H6T | -0.05 ± 0.048 |
| K44T | -0.128 ± 0.041 |
| T3D | -0.136 ± 0.046 |
| R27L | -0.805 ± 0.049 |
| N18M | 0.06 ± 0.031 |
| I1A | 0.049 ± 0.29 |
| K9F | -0.317 ± 0.06 |
| D11K | 0.154 ± 0.059 |
| H6R | -0.092 ± 0.041 |
| I39G | -0.286 ± 0.035 |
| K44D | -0.167 ± 0.069 |
| L29S | -0.368 ± 0.031 |
| L29K | -0.226 ± 0.056 |
| W7Y | -0.051 ± 0.042 |
| L34H | -0.026 ± 0.043 |
| S36Y | -0.115 ± 0.043 |

| Variant | abundance fitness |
| --- | --- |
| Q37V | 0.002 ± 0.033 |
| E25Q | -0.097 ± 0.035 |
| S2F | 0.103 ± 0.073 |
| L10F | -0.535 ± 0.06 |
| K9P | -0.576 ± 0.057 |
| Q37L | -0.178 ± 0.03 |
| R41Q | -0.466 ± 0.077 |
| S36W | -0.114 ± 0.032 |
| R41P | -0.728 ± 0.084 |
| V17W | -0.092 ± 0.051 |
| L20N | -1.08 ± 0.22 |
| L34W | -0.151 ± 0.034 |
| S2Q | -0.06 ± 0.068 |
| K32T | -0.066 ± 0.049 |
| K16I | -0.127 ± 0.052 |
| L34D | -0.062 ± 0.067 |
| S26C | 0.08 ± 0.04 |
| E23L | -0.913 ± 0.07 |
| D19E | -0.275 ± 0.046 |
| L10Q | -0.516 ± 0.033 |
| P4S | 0.15 ± 0.046 |

| Variant | abundance fitness |
| --- | --- |
| A28C | 0.054 ± 0.057 |
| A40K | -0.349 ± 0.069 |
| L24M | -0.678 ± 0.062 |
| W7T | -0.103 ± 0.035 |
| A40H | 0.1 ± 0.064 |
| I39D | -0.266 ± 0.035 |
| I1G | -0.261 ± 0.08 |
| H6Y | -0.042 ± 0.049 |
| T43L | -0.043 ± 0.031 |
| K44E | -0.151 ± 0.042 |
| Q45M | -0.216 ± 0.06 |
| K35W | -0.482 ± 0.032 |
| S2N | 0.23 ± 0.041 |
| R41M | -0.356 ± 0.045 |
| S8W | -0.272 ± 0.055 |
| S8E | -0.006 ± 0.055 |
| W7S | -0.104 ± 0.035 |
| V17I | 0.013 ± 0.046 |
| L29H | -0.286 ± 0.066 |
| T3G | -0.096 ± 0.031 |
